In paper PMC3591345, “A Novel Single-Strand Specific 3′–5′ Exonuclease Found in the Hyperthermophilic Archaeon, Pyrococcus furiosus”:

Tests used:
[1] = molecular target: PfuExo I (recombinant protein encoded by PF2046) (Pyrococcus furiosus) (UniProt Q8TZE9); experiment: SEC; analytical gel filtration, SMART system, Superdex 200 3.2/30; 20 µM PfuExo I; 50 mM Tris-HCl pH 8.0, 0.5 mM DTT, 0.1 mM EDTA, 10% glycerol, 0.15 M NaCl; mass estimated against marker proteins
[2] = molecular target: T1, PfuExo I (Pyrococcus furiosus, UniProt Q8TZE9 1-229); experiment: EMSA; no Mg2+, 0.1 mM EDTA; 1-1000 nM protein; 0.1% glutaraldehyde fixation; one shifted band; 20 mM triethanolamine (pH not stated), 50 mM NaCl, 0.1 mg/ml BSA, 0.1 mM EDTA, 2.5 nM DNA, 20 min at 37 C, then 0.1% glutaraldehyde; 4.5% native PAGE; details: protein: recombinant, chain copies: 3, label: 32P (5')
T1 sequence: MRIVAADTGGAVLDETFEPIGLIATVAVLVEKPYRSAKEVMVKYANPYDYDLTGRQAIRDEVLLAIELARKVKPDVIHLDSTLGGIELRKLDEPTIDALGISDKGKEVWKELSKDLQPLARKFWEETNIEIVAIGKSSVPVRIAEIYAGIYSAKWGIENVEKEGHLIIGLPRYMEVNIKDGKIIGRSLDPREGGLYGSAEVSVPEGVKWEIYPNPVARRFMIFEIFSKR

“PfuExo I (recombinant protein encoded by PF2046) (from UniProt Q8TZE9 1-229) (enzyme)” showed a stoichiometry N [1] of 3.

B1: 5'-overhang DNA d49F/d27 (dsDNA)
DNA 1: AGCTACCATGCCTGCACGAATTAAGCAATTCGTAATCATGGTCATAGCT
DNA 2: AGCTATGACCATGATTACGAATTGCTT
B1: binds ([2]; 5' overhang 22 nt).

B2: 3'-overhang DNA d49F/d22 (dsDNA)
DNA 1: B1 DNA 1
DNA 2: AATTCGTGCAGGCATGGTAGCT
B2: binds ([2]; 3' overhang 27 nt).
